Numbering of substitutions follows the chain as printed. Names may count otherwise. Blank lines part the entries; values can stand above or below the binder they belong to.
Assays:
[1] = target: T1, AnkG_repeats (24 ANK repeats of rat 190 kDa ankyrin-G, residues 38–855) (rat, UniProt O70511 38-855); test: ITC; VP-ITC at 25°C; 50 mM Tris pH 7.5, 100 mM NaCl, 1 mM EDTA, 1 mM DTT; binding partner (AS, Nav1.2 ABD proteins, neurofascin ABD; 200–300 µM) in the syringe, ANK repeats (20–30 µM) in the cell; one-site binding model; settings: both partners purified
T1 construct: ankyrin-G (AnkG), rat, 190 kDa isoform used as template, ANK repeats, residues 38-855; also called AnkG ANK repeats; wild-type ANK repeats; source: E. coli BL21 (DE3), purified
T1 sequence (looked up): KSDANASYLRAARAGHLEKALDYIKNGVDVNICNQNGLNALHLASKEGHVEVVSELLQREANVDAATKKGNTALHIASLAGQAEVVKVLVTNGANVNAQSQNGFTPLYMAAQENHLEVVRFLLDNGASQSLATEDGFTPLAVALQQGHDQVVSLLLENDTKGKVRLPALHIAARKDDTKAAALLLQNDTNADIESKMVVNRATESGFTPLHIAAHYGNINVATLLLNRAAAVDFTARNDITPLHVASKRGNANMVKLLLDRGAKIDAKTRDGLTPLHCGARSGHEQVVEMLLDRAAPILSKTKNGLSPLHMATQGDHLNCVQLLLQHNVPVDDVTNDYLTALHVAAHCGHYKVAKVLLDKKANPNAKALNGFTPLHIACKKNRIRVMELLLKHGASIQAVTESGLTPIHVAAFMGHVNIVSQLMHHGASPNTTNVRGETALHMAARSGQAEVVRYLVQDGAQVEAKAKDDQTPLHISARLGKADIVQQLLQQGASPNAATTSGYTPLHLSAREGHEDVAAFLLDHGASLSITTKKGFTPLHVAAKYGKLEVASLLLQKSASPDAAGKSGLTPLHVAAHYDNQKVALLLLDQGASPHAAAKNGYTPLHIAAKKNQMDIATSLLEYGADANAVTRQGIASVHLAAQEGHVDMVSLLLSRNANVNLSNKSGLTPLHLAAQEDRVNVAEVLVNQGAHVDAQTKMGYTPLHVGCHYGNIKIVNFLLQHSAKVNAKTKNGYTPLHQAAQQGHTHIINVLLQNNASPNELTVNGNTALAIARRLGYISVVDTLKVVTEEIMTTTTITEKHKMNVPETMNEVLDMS

[2] = target: T2, AnkR_repeats (24 ANK repeats of ankyrin-R, residues 42–853) (mouse, UniProt Q02357-6 42-853); test: as above; settings: both partners purified
T2 construct: ankyrin-R (AnkR), mouse, ANK repeats, residues 42-853, PCR amplified from a mouse muscle cDNA library; The thioredoxin-His6 tag was removed with HRV 3C protease 'when needed'; also called AnkR ANK repeats; source: E. coli BL21 (DE3), purified
T2 sequence (looked up): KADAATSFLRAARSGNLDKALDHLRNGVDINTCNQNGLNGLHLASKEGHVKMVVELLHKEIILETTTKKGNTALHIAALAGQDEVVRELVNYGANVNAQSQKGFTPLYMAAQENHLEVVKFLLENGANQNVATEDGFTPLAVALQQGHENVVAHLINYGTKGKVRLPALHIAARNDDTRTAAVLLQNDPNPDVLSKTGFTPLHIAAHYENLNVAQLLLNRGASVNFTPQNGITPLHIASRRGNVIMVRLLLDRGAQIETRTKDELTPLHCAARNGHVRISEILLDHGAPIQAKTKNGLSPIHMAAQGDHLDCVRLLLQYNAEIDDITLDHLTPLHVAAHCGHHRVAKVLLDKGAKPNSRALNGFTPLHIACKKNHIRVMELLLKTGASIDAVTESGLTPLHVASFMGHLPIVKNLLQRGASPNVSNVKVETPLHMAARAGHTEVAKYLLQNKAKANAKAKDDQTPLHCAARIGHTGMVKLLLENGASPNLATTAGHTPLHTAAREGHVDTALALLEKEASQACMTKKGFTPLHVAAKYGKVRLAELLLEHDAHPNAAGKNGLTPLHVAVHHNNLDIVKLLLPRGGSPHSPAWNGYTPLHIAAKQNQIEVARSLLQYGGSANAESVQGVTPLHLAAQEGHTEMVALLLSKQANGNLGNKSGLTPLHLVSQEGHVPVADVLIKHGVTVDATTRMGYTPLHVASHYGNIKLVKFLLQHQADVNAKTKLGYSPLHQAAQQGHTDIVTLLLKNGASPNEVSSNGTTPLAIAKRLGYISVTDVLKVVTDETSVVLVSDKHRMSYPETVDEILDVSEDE

[3] = target: T3, AnkB_repeats (24 ANK repeats of human 220 kDa ankyrin-B, residues 28–873) (human, UniProt Q01484 28-873); test: as above; settings: both partners purified
T3 construct: ankyrin-B (AnkB), human, 220 kDa isoform used as template, ANK repeats, residues 28-873; source: E. coli BL21 (DE3), purified
T3 sequence (looked up): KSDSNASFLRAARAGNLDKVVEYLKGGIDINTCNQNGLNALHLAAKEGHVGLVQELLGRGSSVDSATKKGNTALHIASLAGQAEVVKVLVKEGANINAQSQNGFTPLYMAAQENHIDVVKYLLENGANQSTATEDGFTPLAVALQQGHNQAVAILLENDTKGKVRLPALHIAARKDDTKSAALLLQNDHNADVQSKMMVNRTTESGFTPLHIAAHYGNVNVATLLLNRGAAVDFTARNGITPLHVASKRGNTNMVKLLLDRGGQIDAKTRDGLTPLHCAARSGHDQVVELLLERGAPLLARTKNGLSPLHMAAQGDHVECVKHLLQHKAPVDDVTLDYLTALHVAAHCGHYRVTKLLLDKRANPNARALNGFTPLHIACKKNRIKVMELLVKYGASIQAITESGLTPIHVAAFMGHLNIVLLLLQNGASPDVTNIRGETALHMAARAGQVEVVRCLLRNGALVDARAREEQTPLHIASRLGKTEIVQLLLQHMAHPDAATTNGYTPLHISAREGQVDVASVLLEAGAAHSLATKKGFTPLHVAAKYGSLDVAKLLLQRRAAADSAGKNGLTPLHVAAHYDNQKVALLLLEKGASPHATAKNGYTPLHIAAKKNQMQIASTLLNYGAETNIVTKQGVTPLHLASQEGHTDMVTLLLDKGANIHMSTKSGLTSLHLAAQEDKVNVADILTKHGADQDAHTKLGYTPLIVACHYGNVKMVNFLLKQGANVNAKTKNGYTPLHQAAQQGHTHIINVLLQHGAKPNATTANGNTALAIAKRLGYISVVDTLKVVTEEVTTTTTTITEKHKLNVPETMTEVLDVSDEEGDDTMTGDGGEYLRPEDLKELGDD

[4] = target: T4, AnkG_repeats (24 ANK repeats of rat 190 kDa ankyrin-G, residues 38–855) (rat, UniProt O70511 38-855); test: ITC
T4 chain: T1 sequence (looked up)

AnkB R1-14 = target: T5, AnkB R1-14 (Homo sapiens); test: ITC
T5 chain: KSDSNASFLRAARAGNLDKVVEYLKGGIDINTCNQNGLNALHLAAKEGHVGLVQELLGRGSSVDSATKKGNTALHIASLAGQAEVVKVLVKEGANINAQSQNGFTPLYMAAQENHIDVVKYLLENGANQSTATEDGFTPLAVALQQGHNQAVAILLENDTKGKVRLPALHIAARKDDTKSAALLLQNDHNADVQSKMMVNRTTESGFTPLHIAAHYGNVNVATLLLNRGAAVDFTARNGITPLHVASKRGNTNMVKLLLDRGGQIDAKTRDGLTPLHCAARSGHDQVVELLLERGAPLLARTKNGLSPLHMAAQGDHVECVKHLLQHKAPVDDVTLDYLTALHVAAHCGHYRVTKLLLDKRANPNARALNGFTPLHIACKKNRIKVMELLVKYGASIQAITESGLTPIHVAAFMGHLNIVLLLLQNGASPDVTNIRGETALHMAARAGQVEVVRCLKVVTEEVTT

[5] = target: T6, AnkG ANK repeats R1–6 (truncation of AnkG_repeats with C-terminal capping sequence) (rat | human); test: ITC
T6 chain: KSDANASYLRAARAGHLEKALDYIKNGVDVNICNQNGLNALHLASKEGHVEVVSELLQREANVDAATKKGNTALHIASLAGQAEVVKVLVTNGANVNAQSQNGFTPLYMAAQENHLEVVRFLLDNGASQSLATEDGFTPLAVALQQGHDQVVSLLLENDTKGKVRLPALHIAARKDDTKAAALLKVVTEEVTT

[6] = target: T7, AnkB_repeats_R1–9 (first nine ANK repeats of AnkB, residues 28–318, followed by the capping sequence 814–822) (human, UniProt Q01484 28-318; Q01484 814-822); test: ITC
T7 chain: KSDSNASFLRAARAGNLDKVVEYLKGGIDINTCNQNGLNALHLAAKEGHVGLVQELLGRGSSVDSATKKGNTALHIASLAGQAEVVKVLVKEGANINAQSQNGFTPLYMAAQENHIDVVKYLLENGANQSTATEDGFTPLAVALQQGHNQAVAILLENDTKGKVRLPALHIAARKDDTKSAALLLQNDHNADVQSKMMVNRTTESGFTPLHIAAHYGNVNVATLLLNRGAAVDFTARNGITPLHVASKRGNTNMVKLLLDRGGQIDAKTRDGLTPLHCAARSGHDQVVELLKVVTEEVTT

[7] = target: T4, AnkG_repeats (24 ANK repeats of rat 190 …); test: ITC

B1: Nav1.2 ABD-N (N-terminal 68-residue fragment of loop 2, residues 1035–1102) (domain or fragment)
chain: KALDEIKPLEDLNNKKDSCISNHTTIEIGKDLNYLKDGNGTTSGIGSSVEKYVVDESDYMSFINNPSL
Kd [1]: ~8 µM

B3: AnkR_AS (48-residue auto-inhibitory segment of AnkR, residues 1577–1624) (domain or fragment, mouse, UniProt Q02357-6 1577-1624, looked up)
chain: CADQYWNEVTVIDAIPLAATEHDTMLEMSDMQVWSAGLTPSLVTAEDS
notes: Free AS in ITC; source: E. coli BL21 (DE3), purified
Kd [3]: 400 nM
Kd [4]: 460 nM

B4: Nav1.2_ABD (ankyrin binding domain of Nav1.2, residues 1035–1129) (domain or fragment)
chain: KALDEIKPLEDLNNKKDSCISNHTTIEIGKDLNYLKDGNGTTSGIGSSVEKYVVDESDYMSFINNPSLTVTVPIAVGESDFENLNTEEFSSESDM
Kd (AnkB R1-14): 290 nM
Kd [5]: 2300 nM
Kd [6]: 3.5 µM

Further lines, results first:

Kd [2]: ~1000 nM
B2: AnkR entire C-terminal regulatory domain (residues 1529–1907) (domain or fragment, mouse, UniProt Q02357-6 1529-1907, looked up)
chain: RQSRNLKPERRHGDREYSLSPSQVNGYSSLQDELLSPASLQYALPSPLCADQYWNEVTVIDAIPLAATEHDTMLEMSDMQVWSAGLTPSLVTAEDSSLECSKAEDSDAIPEWKLEGAHSEDTQGPELGSQDLVEDDTVDSDATNGLADLLGQEEGQRSEKKRQEVSGTEQDTETEVSLVSGQQRVHARITDSPSVRQVLDRSQARTLDWDKQGSTAVHPQEATQSSWQEEVTQGPHSFQRRITTIQGPEPGALQEYEQVLVSTREHVQRGPPETGSPKAGKEPSLWAPESAFSQEVQGDELQNIPGEQVTEEQFTDEQGNIVTKKIIRKVVRQVDSSGAIDTQQHEEVELRGSGLQPDLIEGRKGAQIVKRASLKRGKQ
notes: also called full length AnkR C-terminal domain; C-terminal tail of AnkR; source: E. coli BL21 (DE3), purified

Kd [7]: > 50 µM
B5: E1112K-Nav1.2 (ABD with the charge reversal mutation E1112K) (domain or fragment)
chain: B4 chain with E78K

Reference: article PMC4358367, “Structural basis of diverse membrane target recognitions by ankyrins” (eLife, 2014)
